Legend:
[1] = target: actin filaments (actin purified from rabbit skeletal muscle, polymerized) (rabbit, UniProt P68135 1-377); assay: co-sedimentation
[2] = target: T1, GST fusion protein with α catenin (mouse, UniProt P26231 1-906); assay: pull-down
T1 sequence (looked up): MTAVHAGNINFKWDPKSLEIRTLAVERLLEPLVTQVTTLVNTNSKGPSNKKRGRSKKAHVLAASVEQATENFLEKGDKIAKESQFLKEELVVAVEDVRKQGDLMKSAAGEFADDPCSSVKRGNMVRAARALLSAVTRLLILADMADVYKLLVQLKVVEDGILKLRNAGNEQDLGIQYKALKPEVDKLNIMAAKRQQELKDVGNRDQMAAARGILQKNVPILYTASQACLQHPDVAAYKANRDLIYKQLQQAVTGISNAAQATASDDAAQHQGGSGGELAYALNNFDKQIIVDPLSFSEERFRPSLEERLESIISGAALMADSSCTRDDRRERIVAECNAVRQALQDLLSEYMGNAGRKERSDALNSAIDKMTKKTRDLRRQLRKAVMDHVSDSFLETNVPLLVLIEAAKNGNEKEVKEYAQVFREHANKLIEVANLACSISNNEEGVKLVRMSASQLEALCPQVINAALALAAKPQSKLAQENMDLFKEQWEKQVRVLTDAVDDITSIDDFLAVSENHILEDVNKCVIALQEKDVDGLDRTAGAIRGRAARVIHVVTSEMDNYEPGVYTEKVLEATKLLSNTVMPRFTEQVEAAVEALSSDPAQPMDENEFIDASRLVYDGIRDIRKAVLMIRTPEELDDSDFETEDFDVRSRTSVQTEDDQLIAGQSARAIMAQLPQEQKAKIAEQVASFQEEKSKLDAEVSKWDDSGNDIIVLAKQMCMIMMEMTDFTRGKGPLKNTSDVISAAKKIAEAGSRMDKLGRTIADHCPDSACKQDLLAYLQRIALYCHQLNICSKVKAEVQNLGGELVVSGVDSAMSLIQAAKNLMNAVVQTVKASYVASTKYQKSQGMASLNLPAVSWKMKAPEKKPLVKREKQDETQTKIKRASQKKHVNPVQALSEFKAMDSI

B1: recombinant carboxyl-terminal half of ZO-1 (C-ZO-1; 863–1745 aa) produced in Sf9 cells (domain or fragment)
chain: NDEVGTPPESAITRSSEPVREDSSGMHHENQTYPPYSPQAQPQAIHRIDSPGLKPASQQKAEASSPVPYLSPETTPASSASAVNHNVSVTNVSLEEPAPAPPTSHASQPGCLGAPSAEAAHVVLRGEGPPLPPHADPAKVYRKEPYSEEMMRQNHILKQPALGHPGQRPDKEPNLAYEPQLPYIEKQASRDLEQPSYRYEVSSYTDQFSRNYDHRLRFEDRIPTYEDQWSYYDDKQPYQPRPFENQHPRDLDSRQHPEEASERGYFQRFEEPAPLSYDSRTRYEQLPRTSTLRHEEQPAPAYEVHNRYRPEAQPYSSTGPKSSEPKQYFDQYPRSYEQVPPPGFTSKTGHYEPLHGAAVVPPLIPSSQQKPEVLPSATKPQPPPPTLTEEEEDPAMKPQSVLTRVKMFENKRSASLENKKDVNDTASFKPPEVASKPPGASLAGPKPVPQSQFSEHDKTLYRLPEPQKPQVKPPEDIVRSNHYDPEEDEEYYRKQLSYFDRRSFESKPSAHLPAGHHSEPAKPVHSQSQPNFSSYSSKGKPETDAVDRSFSEKRYDPAQATPPPPPLPSQYSQPAPPLSSSSLHIHSKGAQGEGNSVSLDFQNSYMSKPDPPPSQSKPATFRPPTREDPPQTFYPQKSFPDKAPVNGAEQTQKTITPVYNRFTPKPYTSSARPFERKFESPKFNHNLLPSETVHKPELSSKTPTSPKTLMKAHSSTQPPEFDSGVETFSVHTDKPKYQMNNISTMPKAVPVSPSAVEEDEDEDGHTVVATARGIFNSNGGVLSSIETGVSIIIPQGAIPEGIEQEIYFKVCRDNSILPPLDKEKGETLLSPLVMCGPHGLKFLKPVELRLPHCDPKTWQNKCLPGDPNYLVGANCVSVLIDHF
Question: How did the Kd [1] turn out when B1 was run?
Answer: The Kd was roughly 10 nM.

B2: recombinant amino-terminal half dlg-like domain of ZO-1 (N-ZO-1; 1–862 aa) produced in Sf9 cells (domain or fragment, mouse, UniProt P39447 1-862, looked up)
chain: MSARAAAAKSTAMEETAIWEQHTVTLHRAPGFGFGIAISGGRDNPHFQSGETSIVISDVLKGGPAEGQLQENDRVAMVNGVSMDNVEHAFAVQQLRKSGKNAKITIRRKKKVQIPVSHPDPEPVSDNEDDSYDEEVHDPRAGRGALANRRSEKSWARDRSASRERSLSPRSDRRSVASSQPAKPTKVTLVKSRKNEEYGLRLASHIFVKEISQDSLAARDGNIQEGDVVLKINGTVTENMSLTDAKTLIERSKGKLKMVVQRDERATLLNVPDLSDSIHSANASERDDISEIQSLASDHSGRSHDRPPRRSQSRSPDQRSEPSDHSTQSPQQPSNGSLRSREEERMSKPGAISTPVKHVDDHPPKAVEEVTVEKNEKQTPTLPEPKPVYAQVGQPDVDLPVSPSDGALPNSAHEDGILRPSMKLVKFRKGDSVGLRLAGGNDVGIFVAGVLEDSPAAKEGLEEGDQILRVNNVDFTNIIREEAVLFLLDLPKGEEVTILAQKKKDVYRRIVESDVGDSFYIRTHFEYEKESPYGLSFNKGEVFRVVDTLYNGKLGSWLAIRIGKNHKEVERGIIPNKNRAEQLASVQYTLPKTAGGDRADFWRFRGLRSSKRNLRKSREDLSAQPVQTKFPAYERVVLREAGFLRPVTIFGPIADVAREKLAREEPDIYQIAKSEPRDAGTDHRSSGIIRLHTIKQIIDQDKHALLDVTPNAVDRLNYAQWYPIVVFLNPDSKQGVKTMRMRLCPESRKSARKLYERSHKLRKNNHHLFTTTINLNSMNDGWYGALKEAIQQQQNQLVWVSEGKADGATSDDLDLHDDRLSYLSAPGSEYSMYSTDSRHTSDYEDTDTEGGAYTDQELDETL
Question: Which Kd [2] does the source give for B2 here?
Answer: The Kd was roughly 0.5 nM.
